Data reported in US20200016237A1.

How the values were obtained:
[1] = target: Neogenin on murine brain-derived endothelial cells (b.end3) (mouse) (UniProt P97798); assay: cell-based or functional assay
[2] = target: Alkaline Phosphatase-tagged extracellular domains of Neogenin (Ec-Neogenin-AP); assay: plate competition binding assay, His-tagged protein coated, AP-tagged protein detected with pNPP at 405 nm; sRGMa pre-incubated with Ec-Neogenin-AP

Neogenin on murine brain-derived endothelial cells (b.end3) (mouse), sequence (P97798 37-1492): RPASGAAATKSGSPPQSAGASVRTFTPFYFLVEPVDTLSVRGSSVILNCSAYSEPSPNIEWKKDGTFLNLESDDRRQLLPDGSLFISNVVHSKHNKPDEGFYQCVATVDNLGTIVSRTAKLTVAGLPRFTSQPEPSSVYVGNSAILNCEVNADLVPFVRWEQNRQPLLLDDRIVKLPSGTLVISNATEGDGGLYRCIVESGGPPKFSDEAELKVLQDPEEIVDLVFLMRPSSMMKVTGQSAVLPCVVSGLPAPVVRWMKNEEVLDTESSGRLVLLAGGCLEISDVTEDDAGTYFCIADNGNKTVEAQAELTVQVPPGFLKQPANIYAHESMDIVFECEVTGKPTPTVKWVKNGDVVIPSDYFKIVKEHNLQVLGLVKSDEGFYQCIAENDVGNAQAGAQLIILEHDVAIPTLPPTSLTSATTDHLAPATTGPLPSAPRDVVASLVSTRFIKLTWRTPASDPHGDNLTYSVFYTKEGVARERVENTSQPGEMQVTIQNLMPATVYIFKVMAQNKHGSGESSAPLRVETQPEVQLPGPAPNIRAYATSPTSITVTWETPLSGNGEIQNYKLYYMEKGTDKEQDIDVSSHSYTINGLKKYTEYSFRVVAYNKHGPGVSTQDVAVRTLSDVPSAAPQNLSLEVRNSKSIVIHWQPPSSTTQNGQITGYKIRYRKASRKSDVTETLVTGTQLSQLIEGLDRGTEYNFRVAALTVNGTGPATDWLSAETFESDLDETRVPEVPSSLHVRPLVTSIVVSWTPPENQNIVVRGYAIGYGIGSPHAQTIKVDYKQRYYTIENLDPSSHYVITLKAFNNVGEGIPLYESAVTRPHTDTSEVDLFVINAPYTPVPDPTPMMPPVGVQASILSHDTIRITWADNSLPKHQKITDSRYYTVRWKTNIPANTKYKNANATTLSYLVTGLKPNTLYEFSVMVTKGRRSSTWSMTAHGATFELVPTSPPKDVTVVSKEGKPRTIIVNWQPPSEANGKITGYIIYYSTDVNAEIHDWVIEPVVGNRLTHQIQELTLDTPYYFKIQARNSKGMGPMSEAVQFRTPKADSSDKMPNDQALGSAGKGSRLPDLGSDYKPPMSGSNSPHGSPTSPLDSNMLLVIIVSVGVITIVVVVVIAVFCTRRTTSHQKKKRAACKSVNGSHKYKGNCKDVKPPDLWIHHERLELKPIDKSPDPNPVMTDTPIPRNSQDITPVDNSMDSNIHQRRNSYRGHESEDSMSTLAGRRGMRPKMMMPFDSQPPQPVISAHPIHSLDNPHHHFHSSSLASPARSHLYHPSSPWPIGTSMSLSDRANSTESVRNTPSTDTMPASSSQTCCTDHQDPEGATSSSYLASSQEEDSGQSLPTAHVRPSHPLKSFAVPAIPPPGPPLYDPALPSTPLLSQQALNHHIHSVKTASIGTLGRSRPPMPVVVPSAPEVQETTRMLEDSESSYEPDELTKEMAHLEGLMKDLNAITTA

fold decrease in Claudin 5 levels in b.End3 cells (Western blot) [1]: 2 fold | fold reduction of binding intensity of RGMc to Neogenin against BSA control [2]: 3 fold
Substance: soluble RGMa (sRGMa), mouse, His tag replacing the GPI anchor (from UniProt Q6PCX7 170-427) (ligand)
